We go through 167 variants from the RNAGym collection of RNA variant scans (doi:10.7554/elife.80360).

To fix the notation:
B1: Hammerhead Ribozyme (parent)
chain: ACCGGAUGUGCUUUCCGGUCUGAUGAGUCCGUGAGGACGAAACAG

In this data set the parent is B1. Kind of data set: self-cleavage, relative activity (ratio to wild type); higher = more cleavage; co-transcriptional.
As for U13G G36U, the self-cleavage was 0.658.
The same measure for U21A C30A: 0.511.
Under A1G G39U stands 0.428.
On to C20A U21G, for which the self-cleavage came out at 0.326.
For the variant G22A G35C, the self-cleavage was 0.294.
On to U7G C20A, for which the self-cleavage is 0.359.
The same measure for A6G A41U: 0.273; for A1C A23C: 0.287; for U19G G36A: 0.38.
Consider U7A U21C, for which the self-cleavage was determined as 0.628.
The same measure for G25U G31U: 0.419; for G5U U28C: 0.458.
Under G8U G33C stands 0.57; under U14C G18U, 0.413; under G10U U21G, 0.578.
Regarding U12C U14A, the self-cleavage was 0.832.
In the case of U12G U28C, the self-cleavage came to 1.02.
U12G U28A: the self-cleavage stood at 0.666.
The same measure for U12G U28G: 0.685; for G27A A41G: 0.361.
As for G27A A41U, the self-cleavage came out at 0.319.
Under C16U C38G stands 0.717; under U13A U24A, 1.09.
The same measure for G8A U19A: 0.402.
Under C16U G39A stands 0.327; under C2A U24A, 0.929.
For the variant A26U A37G, the self-cleavage was 0.736.
Regarding C38U G39U, the self-cleavage was 0.3.
Under U12A A41C stands 0.325; under C11G U13C, 1.32.
The same measure for A6C G22A: 0.29; for U13G A26G: 0.301; for C2U C3A: 0.417.
The same measure for U24C A37G: 0.9.
As to C38G G45C, the self-cleavage is 0.491.
The same measure for G33C A44C: 0.533.
The same measure for G31U A40C: 0.797; for U9G U24A: 0.928.
Under C2U C29A stands 0.701; under U14A G39C, 0.276.
For the variant A1G C16U, the self-cleavage was found to be 1.9.
The same measure for C11A C43U: 0.616.
Under U12C U19A stands 0.388; under A26U A42G, 0.303.
G17U G27C: the self-cleavage came to 0.486.
The same measure for U14G A23C: 0.36; for G10A G27A: 0.94.
Under G5U G8C stands 0.942; under C30G U32G, 0.651; under G5C C43U, 0.316.
In the case of G36A, the self-cleavage turned out to be 0.733.
Under A26U G27C stands 0.317; under C2U G35C, 0.647; under C2U G45U, 0.835.
Under C2U G45A stands 0.873; under G33U C38A, 0.824.
Under C16A A44G stands 1.35; under A1U A40U, 0.349; under C2G G10C, 0.38.
For the variant G10A G33C, the self-cleavage was found to be 0.959.
Under C3U G8U stands 0.945.
Under G22U U32A stands 0.282.
Turning to G33A G39C, the self-cleavage came out at 0.503.
As for C15A U19G, the self-cleavage came to 0.34.
For U12C U13C, the self-cleavage was found to be 1.13.
Under U12A U28C stands 1.1.
The same measure for A6U A41G: 0.289; for U24A A40G: 0.337; for A34U A40U: 0.305.
Under G18U G22A stands 0.344; under U12G U21G, 0.334.
Turning to A1U C20G, the self-cleavage was determined as 0.412.
The same measure for G36U A42U: 0.329; for C15A C38G: 0.515.
The same measure for G10A U12A: 0.985.
The same measure for U32C G33C: 1.15; for A1U G31C: 0.621; for C3G A42U: 0.23.
Take C29G G31A: the self-cleavage stood at 1.01.
Take U12C G35A: the self-cleavage turned out to be 0.737.
Consider G10U G33A, for which the self-cleavage stood at 1.13.
Under U28G C38U stands 0.858; under U32A A34C, 0.796.
Regarding U21A U28A, the self-cleavage was 0.46.
For A1U A34U, the self-cleavage came out at 0.452.
For G5A G35U, the self-cleavage stood at 0.848.
Consider G22A G25U, for which the self-cleavage came to 0.376.
The same measure for G25U C30G: 0.291.
Under A1C C15G stands 0.43.
Under G4U A6U stands 0.387; under G17A G33C, 0.713.
With G35C C38A, the self-cleavage was found to be 0.398.
The same measure for U21G A34G: 0.602; for G31A A42C: 0.38; for A1C A26U: 0.352.
The same measure for G18C A41G: 0.313.
The same measure for A1C C11A: 0.36; for U12G C20A: 0.332.
As for G8C G33A, the self-cleavage came out at 1.11.
Regarding U13C U28C, the self-cleavage came out at 1.29.
Under A34G G39U stands 0.308; under A34G G39A, 0.288.
The same measure for G8A: 1.05; for U14C A23G: 0.268.
Regarding G8U C30G, the self-cleavage was determined as 0.942.
Under C2U G5C stands 0.364; under G17C U32A, 0.497; under G33C G36C, 0.451.
For the variant C15A G17U, the self-cleavage is 0.374.
Under G8C U24A stands 1.17.
Consider U19A A42C, for which the self-cleavage was 0.369.
The same measure for A41C A42G: 0.276; for A34G A41C: 0.302; for G10U C15G: 0.826.
A41U G45U: the self-cleavage is 0.359.
Under U32A C43U stands 0.595.
The same measure for U24C A34G: 0.901.
Under U12A G27U stands 0.412.
C11U G25C: the self-cleavage was found to be 0.248.
Regarding C3G C29U, the self-cleavage was determined as 0.418.
Under C20A C43U stands 0.342; under U9G C15A, 0.758.
G4A A6U: the self-cleavage was 0.377.
On to G33C A37U, for which the self-cleavage amounted to 0.565.
Under U21C A23U stands 0.708; under U19G G27U, 0.292; under U12C C15A, 0.565.
For A23C U28A, the self-cleavage was determined as 0.262.
Under U7A G10U stands 1.44; under A37G A41G, 0.268.
For the variant U14A U28G, the self-cleavage worked out at 0.555.
As for C3A, the self-cleavage is 0.772.
Take G4A U12C: the self-cleavage was 0.305.
Under A34C C43A stands 0.309; under C11A U21A, 0.895.
As for C2G A6C, the self-cleavage worked out at 0.196.
Take G31A G45A: the self-cleavage amounted to 0.934.
Take G18U U24C: the self-cleavage came to 0.642.
The same measure for G10A U19C: 0.675; for C2G G31U: 0.503.
Turning to G36U A40G, the self-cleavage was 0.29.
The same measure for C29U G33C: 1.09; for G8A C11U: 0.744.
Under A1G A6U stands 1.08; under U21C A41U, 0.469.
Consider G31A G36U, for which the self-cleavage came out at 0.552.
Under G25C G33U stands 0.231.
Take C3A C11G: the self-cleavage stood at 0.562.
In the case of G10A C15U, the self-cleavage worked out at 0.919.
With C30A G35A, the self-cleavage was found to be 0.765.
The same measure for C16G A44C: 0.373; for U21A U24C: 0.329.
C15A A40C: the self-cleavage turned out to be 0.361.
For the variant U14A A44C, the self-cleavage came to 0.414.
For U21C A26U, the self-cleavage came to 0.503.
The same measure for A6U G33U: 0.403; for U9C U12C: 0.982; for C2A U14A: 0.509.
The same measure for C20U G27A: 0.373; for C3G G35C: 0.248; for A26C C29A: 0.241.
In the case of C15U C30G, the self-cleavage amounted to 0.641.
Under C15U C30A stands 0.696; under G5C G31A, 0.855.
U12G C15A: the self-cleavage stood at 1.09.
For the variant U13A G18C, the self-cleavage is 0.777.
On to G5U G10A, for which the self-cleavage worked out at 1.29.
